These results are taken from patent US20240010720A1 (IOMX THERAPEUTICS, published 2024).

By EC50 is commonly meant the midpoint of the concentration-response curve. Read a low EC50 as higher potency in that assay.

Experiment [1] deals with T1, His-tagged extracellular domain (ECD) of human IGSF11 (VSIG3) (human, UniProt Q5DX21 23-241).
T1 construct: partly bought (SinoBiological 13094-H08H); also called IGSF11-HIS; HIS-IGSF11; not shown: HIS6 tag
T1 sequence: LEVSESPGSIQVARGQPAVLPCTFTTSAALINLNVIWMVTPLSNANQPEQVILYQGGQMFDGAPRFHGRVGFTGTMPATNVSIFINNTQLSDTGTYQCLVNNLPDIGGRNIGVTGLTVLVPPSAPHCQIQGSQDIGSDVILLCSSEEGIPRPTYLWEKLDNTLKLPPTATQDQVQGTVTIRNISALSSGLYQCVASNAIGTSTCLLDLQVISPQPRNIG
The experiment in a line: ELISA EC50 grade, IgG1. On the technique in general: In an ELISA, binding on a coated surface is turned into a signal by an enzyme label.

The target in experiment [2] is T2, IGSF11 ECD fused to murine-Fc (human; mouse, UniProt Q5DX21 23-241).
T2 construct: also called Fc-fusion IGSF11 ECD; full-length ECD of IGSF11; not shown: murine Fc
T2 sequence: T1 sequence
The experiment in a line: ELISA, IgG.

For experiment [3], the target named is T3, Streptavidin (UniProt P22629 37-163, limits assumed).
T3 construct: also called negative antigen; irrelevant antigen
The experiment in a line: ELISA, scFv.

Experiment [4] deals with T3, Streptavidin. Nature of the experiment: ELISA, Fab.
Protocol: In order to identify IGSF11-specific binding ABPs, monoclonal Fabs expressed from E. coli were generated from the enriched set of anti-IGFS11 antibody-expressing phage. After bacterial lysis, the Fabs were tested for their binding properties and cross-reactivity profile on recombinant ECD-IGSF11 (human, mouse and cynomolgus monkey) by standard ELISA. Briefly, biotinylated recombinant ECD-IGSF11 from human, mouse, or cynomolgus monkey were immobilized at 2 ug/mL on a streptavidin-coated 384-well Maxisorp plate. The surface was blocked with 2% (w/v) skim milk powder in PBST. After three wash cycles with PBST, a bacterial lysate of each of the anti-IGSF11 Fabs in 2% (w/v) skim milk powder was applied to the immobilized IGSF11 and incubated for 1 h. After removing all unbound Fab by 3 wash cycles with PBST, bound Fab antibodies were detected with a goat anti-human Fab antibody conjugated with horseradish peroxidase. After three wash cycles with PBST the ELISA was developed with TMB substrate.

Residue numbers refer to the chain shown, from its start.

T3 sequence (P22629 37-163 limits assumed): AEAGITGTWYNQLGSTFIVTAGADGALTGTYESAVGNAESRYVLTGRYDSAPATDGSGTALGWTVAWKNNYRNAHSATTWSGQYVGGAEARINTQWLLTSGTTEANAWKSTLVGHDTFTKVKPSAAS

B1: A-033 (IgG1 format) (antibody, V domains shown)
VH: QVQLVQSGAEVKKPGASVKVSCKASGYTFTSYGISWVRQAPGQGLEWMGWISAYNGNTNYAQKLQGRVTMTTDTSTSTAYMELRSLRSDDTAVYYCARDHSIVGATTFDYWGQGTLVTVSS
VL: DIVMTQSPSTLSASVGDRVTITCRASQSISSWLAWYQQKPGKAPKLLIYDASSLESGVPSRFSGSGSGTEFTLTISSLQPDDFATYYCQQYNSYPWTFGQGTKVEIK
notes: human IgG1 format
The molecule B1 registered a half-maximal effective concentration (EC50) in experiment [1] of 0.02 to 0.05 nM.

B2: C-006 (IgG1 format) (antibody, V domains shown)
VH: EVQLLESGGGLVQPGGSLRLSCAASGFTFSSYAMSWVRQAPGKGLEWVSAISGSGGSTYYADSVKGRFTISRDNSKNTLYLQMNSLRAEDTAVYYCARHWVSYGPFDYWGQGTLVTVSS
VL: DIQMTQSPSSLSASVGDRVTITCRASQSISSYLNWYQQKPGKAPKLLIYAASSLQSGVPSRFSGSGSGTDFTLTISSLQPEDFATYYCQQSHQSPPITFGQGTKVEIK
notes: wildtype human IgG1 and kappa or lambda constant regions
In the case of B2, the half-maximal effective concentration (EC50) in experiment [2] lay in the range of 1 to 20 nM.

B3: A-035 (scFv format) (scFv, V domains shown)
VH: QVQLVQSGAEVKKPGASVKVSCKASGYTFTGYYMHWVRQAPGQGLEWMGWINPNSGNTGYAQKFQGRVTMTRNTSISTAYMELSSLRSEDTAVYYCARGRLERGYWYFDLWGRGTLVTVSS
VL: NFMLTQPHSVSESPGRTVTISCTRSSGSITSNYVQWYQQRPGSAPTILIYEDKERPSEVPDRFSGSIDISSNSASLTISGLKTEDEADYYCQSYGGTSQGVLFGGGTKVTVL
notes: scFv
For B3, in the experiment with Streptavidin [3], the binding result was “no binding (tested: <0.025 or <0.05 RFU)”.

B4: C-007 (Fab format) (Fab, V domains shown)
VH: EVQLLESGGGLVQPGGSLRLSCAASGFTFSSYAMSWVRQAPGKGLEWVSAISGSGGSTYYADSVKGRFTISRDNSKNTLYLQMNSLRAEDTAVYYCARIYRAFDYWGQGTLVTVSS
VL: ASVLTQPPSVSAAPGQKVTISCSGSSSNIGNNYVSWYQQLPGTAPKLLIYDNNKRPSGIPDRFSGSKSGTSATLGITGLQAEDEADYYCQLYEEEHSTWVFGGGTKLTVL
notes: Fab in E. coli lysate
As to B4, the A450 in the experiment with Streptavidin [4] was less than 0.1.

B5: C-002 (IgG1 format) (antibody, V domains shown)
VH: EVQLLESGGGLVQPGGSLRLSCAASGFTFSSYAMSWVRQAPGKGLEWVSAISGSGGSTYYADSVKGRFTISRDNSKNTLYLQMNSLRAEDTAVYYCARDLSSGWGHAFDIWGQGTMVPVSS
VL: B4 VL with Q90L, L91S, E93T, E94T, E95S, H96E, S97H, T98H, W99L
notes: as for B2
Molecule B5 registered a 50% effective concentration (EC50) in experiment [2] of 1 to 20 nM.

B6: C-026 (IgG1 format) (antibody, V domains shown)
VH: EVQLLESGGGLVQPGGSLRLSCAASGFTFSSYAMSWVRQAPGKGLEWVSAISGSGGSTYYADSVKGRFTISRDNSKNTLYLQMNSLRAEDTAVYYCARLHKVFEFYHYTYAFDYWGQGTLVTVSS
VL: B4 VL with Q90A, L91S, E93S, E94S, H96T, T98G
notes: as for B2
Take B6: the 50% effective concentration (EC50) in experiment [2] was in the range of 1 to 20 nM.

B7: C-001 (Fab format) (Fab, V domains shown)
VH: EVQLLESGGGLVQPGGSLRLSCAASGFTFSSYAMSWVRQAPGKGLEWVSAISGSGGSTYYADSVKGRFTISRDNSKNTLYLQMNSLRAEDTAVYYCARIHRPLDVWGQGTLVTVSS
VL: B4 VL with Q90G, L91S, Y92W, E93L, H96R, T98Q, W99Y
notes: Fab in E. coli lysate
Molecule B7 gave an A450 with Streptavidin [4] of less than 0.1.

B8: A-001 (IgG1 format) (antibody, V domains shown)
VH: EVQLVESGGGLVKPGGSLRLSCAASGFTFSSYSMNWVRQAPGKGLEWVSSISSSSSYIYYADSVKGRFTISRDNAKNSLYLQMNSLRAEDTAVYYCVRSIIVQALGITSVFDIWGQGTMVTVSS
VL: AIRLTQSPSSLSASVGDRVTISCRASQIISNHLNWYQQKPGKAPKLLIYAASRLQTGVPSRFSGSGSETDYTLTISSLQPEDFATYYCQQSYSNPRTFGHGTKVEIK
notes: human IgG1 format
For B8, the 50% effective concentration (EC50) in experiment [1] was less than 0.02 nM.

B9: C-005 (Fab format) (Fab, V domains shown)
VH: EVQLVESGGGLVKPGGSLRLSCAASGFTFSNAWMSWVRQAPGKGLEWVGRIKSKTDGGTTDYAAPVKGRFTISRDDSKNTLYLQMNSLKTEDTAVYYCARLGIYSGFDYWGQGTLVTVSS
VL: SYELTQPPSVSVSPGQTASITCSGDKLGDKYASWYQQKPGQSPVLVIYQDSKRPSGIPERFSGSNSGNTATLTISGTQAEDEADYYCHSYTGKPSQVVFGGGTKLTVL
notes: Fab in E. coli lysate
The molecule B9 displayed an A450 with Streptavidin [4] of less than 0.1.

B10: C-024 (IgG1 format) (antibody, V domains shown)
VH: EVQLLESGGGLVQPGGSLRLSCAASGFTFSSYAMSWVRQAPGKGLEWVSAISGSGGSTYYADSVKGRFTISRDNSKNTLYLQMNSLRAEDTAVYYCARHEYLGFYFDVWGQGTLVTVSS
VL: B9 VL with H88L, S89A, Y90S, T91H, G92R, K93L, P94T, S95L, Q96N, V97Y
notes: as for B2
As for B10, the EC50 in experiment [2] fell in the range of 1 to 20 nM.

B11: C-018 (IgG1 format) (antibody, V domains shown)
VH: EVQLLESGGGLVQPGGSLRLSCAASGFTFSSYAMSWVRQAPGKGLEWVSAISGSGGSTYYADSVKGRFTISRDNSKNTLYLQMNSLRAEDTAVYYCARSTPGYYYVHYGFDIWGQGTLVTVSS
VL: B9 VL with H88Q, S89A, Y90W, T91S, G92T, K93S, P94T, S95H, Q96S, V97W
notes: as for B2
In experiment [2], B11 displayed a 50% effective concentration (EC50) of 1 to 20 nM.

B12: C-009 (IgG1 format) (antibody, V domains shown)
VH: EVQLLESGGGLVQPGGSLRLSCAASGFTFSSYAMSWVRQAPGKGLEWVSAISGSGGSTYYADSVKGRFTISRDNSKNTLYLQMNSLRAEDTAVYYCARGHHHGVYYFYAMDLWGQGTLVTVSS
VL: B9 VL with H88Q, T91S, K93S, P94S, S95T, Q96L, V97H
notes: as for B2
B12 yielded a concentration giving a half-maximal response (EC50) in experiment [2] of 1 to 20 nM.

B13: C-015 (IgG1 format) (antibody, V domains shown)
VH: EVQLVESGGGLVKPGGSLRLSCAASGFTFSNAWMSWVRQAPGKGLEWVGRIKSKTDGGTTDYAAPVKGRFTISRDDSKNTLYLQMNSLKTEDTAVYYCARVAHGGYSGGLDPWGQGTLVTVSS
VL: B9 VL with H88S, Y90T, T91G, G92T, K93A, P94H, S95T, Q96L, V97A
notes: as for B2
For the molecule B13, the EC50 in experiment [2] was in the range of 20 to 100 nM.

B14: C-023 (IgG1 format) (antibody, V domains shown)
VH: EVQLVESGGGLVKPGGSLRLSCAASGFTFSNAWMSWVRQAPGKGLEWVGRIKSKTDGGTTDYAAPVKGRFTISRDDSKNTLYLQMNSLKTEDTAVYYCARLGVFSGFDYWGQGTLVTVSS
VL: B9 VL with S89T, Y90W, G92H, K93H, P94S, S95L, Q96A
notes: as for B2
As to B14, the EC50 in experiment [2] is less than 1 nM.

B15: C-013 (IgG1 format) (antibody, V domains shown)
VH: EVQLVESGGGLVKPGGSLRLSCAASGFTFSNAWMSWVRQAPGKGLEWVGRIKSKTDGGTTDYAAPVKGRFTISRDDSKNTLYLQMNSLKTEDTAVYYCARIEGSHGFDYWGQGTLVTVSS
VL: B9 VL with H88A, T91L, G92H, K93T, S95K, V97F
notes: as for B2
In turn, B15 gave a concentration giving a half-maximal response (EC50) in experiment [2] of 1 to 20 nM.

B16: A-029 (IgG1 format) (antibody, V domains shown)
VH: QVQLVQSGAEVKKPGSSVKVSCKASGGTFSSYAISWVRQAPGQGLEWMGGIIPIFGTANYAQKFQGRVTITADESTGTAYMELSSLRSEDTAVYYCARSYYYYYGMDVWGQGTTVTVSS
VL: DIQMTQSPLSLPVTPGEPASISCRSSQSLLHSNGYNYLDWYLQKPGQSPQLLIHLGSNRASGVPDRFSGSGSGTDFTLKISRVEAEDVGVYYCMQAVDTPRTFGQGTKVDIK
notes: human IgG1 format
Molecule B16 registered an EC50 in experiment [1] of 0.05 to 1 nM.

B17: A-025 (IgG1 format) (antibody, V domains shown)
VH: QVQLVQSGAEVKKPGSSVKVSCKASGGTFSSYAISWVRQAPGQGLEWMGGIIPIFGTANYAQKFQGRVTITADESTSTAYMELTSLRSEDTAVYYCARGGWLRQNWFDPWGQGTLVTVSS
VL: SSELTQDPAVSVALGQTVRITCQGDSLRSYYASWYQQKPGQAPVLVIYGKNNRPSGIPDRFSGSSSGNTASLTITGAQAEDEADYYCNSRDSSGNHPRVFGGGTKLTVL
notes: human IgG1 format
For B17, the EC50 in experiment [1] lay in the range of 0.05 to 1 nM.

B18: A-009 (IgG1 format) (antibody, V domains shown)
VH: B17 VH with T84S, G100R, W101G, L102F, R103G, Q104E, N105L, W106Y, P109Y
VL: ETTLTQSPATLSVSPGERATLSCRASQGVRSNIAWYQQKPGQAPRLLIYDSSTRATGIPARFSGSGSGTEFTLTISSLQSEDFAVYSCQQYKNWPRTFGQGTKVEIK
notes: human IgG1 format
The molecule B18 showed a concentration giving a half-maximal response (EC50) in experiment [1] of 0.05 to 1 nM.

B19: C-010 (IgG1 format) (antibody, V domains shown)
VH: B17 VH with T84S, G100Y, W101G, L102E, R103Y, Q104Y, N105P, W106A, P109V
VL: B9 VL with H88A, T91A, G92H, K93T, P94H, Q96T, V97W
notes: as for B2
B19 displayed an EC50 in experiment [2] of 20 to 100 nM.

B20: C-022 (IgG1 format) (antibody, V domains shown)
VH: EVQLLESGGGLVQPGGSLRLSCAASGFTFSSYAMSWVRQAPGKGLEWVSAISGSGGSTYYADSVKGRFTISRDNSKNTLYLQMNSLRAEDTAAYYCARMAAGASWGTFDYWSQGTLVTVSS
VL: DIQMTQSPSSLSASVGDRVTITCRASQSISSYLNWYQQKPGKAPKLLIYAASSLQSGVPSRFSGSGSGTDFTLTISSLQPEDFATYYCQQRSGSPLTFGQGTKVEIK
notes: as for B2
Take B20: the concentration giving a half-maximal response (EC50) in experiment [2] was 1 to 20 nM.

B21: A-023 (IgG1 format) (antibody, V domains shown)
VH: QVQLVQSGAEVKKPGSSVKVSCKASGGTFSSYAISWVRQAPGQGLEWMGGIIPIFGTANYAQKFQGRVTITADESTSTAYMELSSLRSEDTAVYYCARPKYSSGWFYYYGMDVWGQGTTVTVSS
VL: QSVLTQPPSVSAAPGQKVTISCSGSSSNIGNNYVSWYQQLPGTAPKLLIYDNNKRPSGIPDRFSGSKSGTSATLGITGLQTGDEADYYCGTWDSSLSVVFGGGTKLTVL
notes: human IgG1 format
Regarding B21, the half-maximal effective concentration (EC50) in experiment [1] fell in the range of 0.05 to 1 nM.

B22: A-003 (IgG1 format) (antibody, V domains shown)
VH: VQLVQSGAEVKKPGSSVKVSCKASGGTFSSYAISWVRQAPGQGLEWMGGIIPIFGTANYAQKFQGRVTITADESTSTAYMELSSLRSEDTAVYYCASPRIQLWAAGGFDYWGQGTLVTVSS
VL: QSALTQPASVSGSPGQSITISCTGTSSDVGGYNLVSWYQQHPGKAPKLMIYDVSNRPSGVSNRFSGSKSGNTASLTISGLQAEDEADYYCSSFTTSTTLVFGGGTKLTVL
notes: human IgG1 format
In turn, B22 yielded a concentration for a half-maximal effect (EC50) in experiment [1] of 0.05 to 1 nM.

B23: A-004 (scFv format) (scFv, V domains shown)
VH: EVQLVESGGGLVKPGGSLRLSCAASGFTFSSYSMNWVRQAPGKGLEWVSSISSSSSYIYYADSVKGRFTISRDNAKNSLYLQMNSLRAEDTAVYYCARGQLLWFGESALIDAFDIWGQGTMVTVSS
VL: EIVLTQSPSSLSASVGDRVTITCRASQSISSYLNWYQLKPGKAPKLLIYAASILQSGVPSRFSGSGSGTDFTLTISSLQPEDFAAYYCQQSYSTPRTFGQGTKLEIK
notes: scFv
As to B23, the binding result in the experiment with Streptavidin [3] is “no binding (tested: <0.025 or <0.05 RFU)”.

B24: A-016 (IgG1 format) (antibody, V domains shown)
VH: QVQLQESGAEVKKPGASVKVSCKASGYTFTGYYMHWVRQAPGQGLEWMGGIIPIFGTANYAQKFQGRVTITADESTSTAYMELSSLRSEDTAVYYCAGAGMELTRSGAYYYYGMDVWGQGTTVTVSS
VL: QSALTQPASVSGSPGQSITISCTGTSSDIGGYTFVSWYQQHPGKAPKVMIHDVNNRPSGISNRFSGSKSGNTASLTISGLQAEDEADYYCSSVTSTNTYVFGTGTKVTVL
notes: human IgG1 format
In experiment [1], B24 returned an EC50 of less than 0.02 nM.

B25: C-008 (IgG1 format) (antibody, V domains shown)
VH: EVQLLESGGGLVQPGGSLRLSCAASGFTFSSYAMSWVRQAPGKGLEWVSAISGSGGSTYYADSVKGRFTISRDNSKNTLYLQMNSLRAEDTAVYYCTTDNGHNRDWGQGTLVTVSS
VL: ASVLTQPPSVSAAPGQKVTISCSGSSSNIGNNYVSWYQQLPGTAPKLLIYDNNKRPSGIPDRFSGSKSGTSATLGITGLQAEDEADYYCGTWTRSSGVFGGGTKLTVL
notes: as for B2
The molecule B25 yielded a half-maximal effective concentration (EC50) in experiment [2] of less than 1 nM.

B26: A-008 (IgG1 format) (antibody, V domains shown)
VH: QLQLQESGPGLVKPSETLSLTCTVSGGSISSSGYYWGWIRQPPGKGLEWIGSIYYSGSTYYNPSLKSRVTISVDTSKNQFSLKLSSVTAADTAVYYCARHRVRFGEFDAFDIWGQGTMVTVSS
VL: QAVLTQPPSVSGAPGERVTLSCTGTSSNVGADFDVHWYQQFPGTAPRLLIFGSDNRPSGVPDRFSGSKSGTSASLAITGLQVEDEADYYCQAYDVRLSGWVFGGGTKLTVL
notes: human IgG1 format
The molecule B26 returned a 50% effective concentration (EC50) in experiment [1] of 0.02 to 0.05 nM.
